The Human Domainome abundance scans (Beltran et al. 2025)
± gives the uncertainty stated by the source.

B1: Poly(rC)-binding protein 1, residues 278 to 350; numbered along this chain, Q15365 (parent)
chain: TQTTHELTIPNNLIGCIIGRQGANINEIRQMSGAQIKIANPVEGSSGRQVTITGSAASISLAQYLINARLSSE

Variants of: B1
Test: abundance fitness (aPCA) (normalised: wild type 0, dead -1); higher = more abundant; growth selection in yeast, the domain comes from the species named
Details: Homo sapiens

Abundance fitness of substitutions, site by site:
I36: E -0.986 ± 0.18, F -0.5 ± 0.21, G -0.782 ± 0.062, H 0.062 ± 0.43, K -1.14 ± 0.27, L -0.406 ± 0.045, M -0.648 ± 0.078, N -0.689 ± 0.29, P -1.01 ± 0.24, Q -0.829 ± 0.14, R -0.835 ± 0.069, W -1.04 ± 0.12, Y -0.767 ± 0.43
K37: A -0.109 ± 0.049, C -0.4 ± 0.17, D -0.034 ± 0.076, E 0.01 ± 0.051, F -0.41 ± 0.22, G -0.255 ± 0.04, H -0.272 ± 0.15, I 0.124 ± 0.097, L -0.142 ± 0.036, M -0.065 ± 0.045, N 0.032 ± 0.086, P -0.718 ± 0.17, Q 0.083 ± 0.064, S -0.11 ± 0.066, T 0.051 ± 0.064, V -0.032 ± 0.032, W -0.215 ± 0.051, Y 0.007 ± 0.1
I38: A -0.672 ± 0.07, C -0.793 ± 0.35, D -0.754 ± 0.14, E -0.679 ± 0.085, F -0.301 ± 0.16, G -0.727 ± 0.054, K -0.612 ± 0.11, L -0.11 ± 0.048, M -0.333 ± 0.077, P -0.631 ± 0.12, Q -0.828 ± 0.14, R -0.737 ± 0.068, S -0.814 ± 0.13, T -0.403 ± 0.11, V -0.094 ± 0.041, W -0.53 ± 0.063
A39: C -0.035 ± 0.089, D 0.032 ± 0.097, F -0.46 ± 0.19, G 0.061 ± 0.034, I -0.029 ± 0.12, K -0.05 ± 0.071, L -0.04 ± 0.038, M -0.092 ± 0.05, N 0.076 ± 0.15, P -0.428 ± 0.1, Q -0.075 ± 0.077, R -0.17 ± 0.039, S 0.03 ± 0.049, V -0.382 ± 0.046, W -0.071 ± 0.055
N40: A -0.023 ± 0.039, C -0.085 ± 0.058, D 0.034 ± 0.07, E 0.004 ± 0.046, F -0.373 ± 0.096, G 0.026 ± 0.029, H -0.094 ± 0.084, I -0.553 ± 0.18, K 0.02 ± 0.056, L -0.17 ± 0.041, M -0.052 ± 0.056, P -0.002 ± 0.048, Q 0.086 ± 0.048, R 0.016 ± 0.031, S -0.012 ± 0.042, T -0.16 ± 0.06, V -0.266 ± 0.04, W -0.512 ± 0.053, Y -0.165 ± 0.1
P41: A 0.057 ± 0.038, C -0.09 ± 0.065, D -0.092 ± 0.053, E -0.012 ± 0.042, G -0.11 ± 0.033, I -0.196 ± 0.12, L -0.046 ± 0.047, M 0.115 ± 0.057, Q 0.049 ± 0.055, R 0.018 ± 0.035, S -0.061 ± 0.046, T -0.081 ± 0.058, V -0.218 ± 0.043, Y -0.021 ± 0.1
V42: C -0.086 ± 0.085, D -0.028 ± 0.074, E -0.011 ± 0.044, G -0.13 ± 0.035, H -0.186 ± 0.12, I -0.007 ± 0.11, K -0.017 ± 0.052, L -0.151 ± 0.045, M -0.229 ± 0.067, N -0.272 ± 0.13, P -0.192 ± 0.062, Q -0.159 ± 0.058, R -0.012 ± 0.032, S -0.028 ± 0.042, T -0.1 ± 0.059, W -0.525 ± 0.061, Y -0.141 ± 0.1
E43: A -0.249 ± 0.072, C -0.168 ± 0.083, F -0.179 ± 0.067, G -0.115 ± 0.077, H -0.021 ± 0.054, I 0.01 ± 0.065, L -0.039 ± 0.045, M 0.05 ± 0.07, N -0.024 ± 0.054, Q -0.258 ± 0.079, R -0.061 ± 0.046, S -0.02 ± 0.045, T -0.119 ± 0.056, V 0.073 ± 0.057, W -0.18 ± 0.091, Y -0.051 ± 0.052
G44: A -0.213 ± 0.065, C -0.19 ± 0.12, D -0.087 ± 0.13, E -0.278 ± 0.1, F -0.182 ± 0.094, H -0.333 ± 0.1, I -0.732 ± 0.18, K -0.229 ± 0.066, L -0.401 ± 0.05, M -0.343 ± 0.068, N -0.12 ± 0.088, P -0.211 ± 0.054, Q -0.308 ± 0.069, R -0.212 ± 0.055, S -0.235 ± 0.049, T -0.374 ± 0.059, V -0.353 ± 0.078, W -0.424 ± 0.1, Y 0.081 ± 0.078
S45: A -0.002 ± 0.062, C 0.012 ± 0.13, D 0.026 ± 0.15, E 0.002 ± 0.1, F -0.009 ± 0.094, G -0.292 ± 0.12, H -0.223 ± 0.087, I -0.093 ± 0.076, K 0.094 ± 0.076, L -0.011 ± 0.05, M 0.005 ± 0.073, N -0.031 ± 0.067, P -0.442 ± 0.091, Q -0.054 ± 0.065, R -0.157 ± 0.07, T 0.056 ± 0.046, V -0.012 ± 0.087, W -0.431 ± 0.15, Y -0.044 ± 0.075
S46: A -0.015 ± 0.051, C -0.021 ± 0.081, D 0.19 ± 0.076, E -0.088 ± 0.057, F 0.002 ± 0.075, G -0.032 ± 0.057, H -0.205 ± 0.084, I -0.104 ± 0.08, K -0.002 ± 0.044, L 0.064 ± 0.041, M -0.139 ± 0.054, N 0.069 ± 0.052, P -0.029 ± 0.049, Q -0.048 ± 0.048, R -0.106 ± 0.048, T -0.063 ± 0.046, V -0.179 ± 0.067, W -0.125 ± 0.069, Y -0.117 ± 0.057
G47: A 0.013 ± 0.036, C -0.097 ± 0.062, D 0.032 ± 0.062, E 0.067 ± 0.039, F -0.116 ± 0.096, H -0.129 ± 0.094, I -0.379 ± 0.18, K -0.01 ± 0.052, L 0 ± 0.03, M 0.043 ± 0.041, N 0.047 ± 0.099, P -0.491 ± 0.075, Q 0.054 ± 0.056, R -0.062 ± 0.035, S 0.023 ± 0.043, T 0.008 ± 0.052, V 0.017 ± 0.029, W -0.073 ± 0.047, Y -0.008 ± 0.085
R48: A -0.113 ± 0.04, C -0.114 ± 0.05, D -0.626 ± 0.12, E -0.752 ± 0.088, G -0.597 ± 0.043, H -0.118 ± 0.085, I -0.205 ± 0.08, K -0.451 ± 0.066, L -0.328 ± 0.046, M -0.217 ± 0.054, N -0.368 ± 0.1, P -0.714 ± 0.11, Q -0.257 ± 0.058, T -0.158 ± 0.049, V -0.093 ± 0.034, W -0.184 ± 0.044, Y 0.045 ± 0.064
Q49: A 0.006 ± 0.043, C 0.006 ± 0.051, D -0.263 ± 0.069, E -0.204 ± 0.064, F -0.533 ± 0.16, H -0.073 ± 0.069, I -0.033 ± 0.063, K -0.049 ± 0.063, L 0.03 ± 0.041, M -0.081 ± 0.045, N -0.054 ± 0.058, P -0.298 ± 0.064, R 0.049 ± 0.029, S 0.008 ± 0.04, V 0.043 ± 0.034, W -0.613 ± 0.071, Y -0.543 ± 0.12
V50: A -0.639 ± 0.089, C -0.147 ± 0.093, D -0.796 ± 0.25, E -0.714 ± 0.12, F -0.602 ± 0.19, G -0.865 ± 0.089, H -0.596 ± 0.35, I 0.047 ± 0.088, K -0.7 ± 0.14, L -0.069 ± 0.035, M -0.202 ± 0.056, N -0.819 ± 0.25, R -0.818 ± 0.11, S -0.882 ± 0.16, T -0.901 ± 0.17, W -0.989 ± 0.2, Y -0.57 ± 0.46
T51: C 0.024 ± 0.085, D -0.542 ± 0.22, E -0.097 ± 0.038, F -0.071 ± 0.12, G -0.574 ± 0.065, H -0.287 ± 0.17, I -0.107 ± 0.11, K 0.005 ± 0.052, L -0.034 ± 0.037, M -0.066 ± 0.043, N -0.427 ± 0.23, P -0.682 ± 0.11, Q -0.088 ± 0.048, R -0.054 ± 0.043, S -0.02 ± 0.042, V -0.027 ± 0.033, W -0.063 ± 0.058, Y -0.07 ± 0.099
I52: C -1.03 ± 0.27, D -0.583 ± 0.25, E -0.732 ± 0.097, F -0.694 ± 0.26, G -1.05 ± 0.1, H -0.927 ± 0.29, K -0.631 ± 0.098, L -0.039 ± 0.037, M -0.225 ± 0.053, N -0.878 ± 0.47, P -0.698 ± 0.15, R -0.996 ± 0.1, S -0.574 ± 0.09, T -0.739 ± 0.15, V -0.218 ± 0.037, W -1.02 ± 0.16, Y -1.09 ± 0.39
T53: A -0.126 ± 0.036, C -0.137 ± 0.071, D -0.51 ± 0.11, F -0.321 ± 0.12, G -0.308 ± 0.036, H -0.491 ± 0.15, I -0.125 ± 0.12, K 0.075 ± 0.049, M -0.063 ± 0.056, N -0.385 ± 0.16, P -0.777 ± 0.12, Q -0.075 ± 0.053, R -0.007 ± 0.031, S -0.041 ± 0.042, V -0.118 ± 0.039, W -0.274 ± 0.049, Y -0.129 ± 0.13
G54: A -0.916 ± 0.083, C -0.85 ± 0.18, D -0.834 ± 0.19, E -0.838 ± 0.13, F -0.507 ± 0.25, H -0.465 ± 0.21, K -0.804 ± 0.18, L -0.877 ± 0.12, M -1.02 ± 0.26, P -0.805 ± 0.12, Q -1.11 ± 0.29, S -0.881 ± 0.11, T -0.854 ± 0.12, W -0.912 ± 0.14, Y -1.08 ± 0.46
S55: A -0.239 ± 0.042, C -0.252 ± 0.069, D -0.13 ± 0.068, E -0.086 ± 0.034, F -0.551 ± 0.33, G -0.21 ± 0.034, H -0.047 ± 0.085, I -0.882 ± 0.31, K -0.25 ± 0.046, L -0.786 ± 0.1, M -0.536 ± 0.1, N -0.017 ± 0.07
